Results: publication PMC5353611

Key:
[1] = molecular target: His-tagged C-propeptide of the human procollagen α2(I) chain (C1A2His) (human); test: co-purification (Co2+ affinity by the His-tag of the α2 chain, gel filtration) with SDS-PAGE and MALDI-TOF mass spectrometry; α1 and α2 C-propeptides co-expressed in HEK 293T (plasmids 2:1); hetero-CPI separated from untagged homo-CPI by the His-tag of the α2 chain; with or without removal of the tag by TEV protease; Superdex S200
[2] = molecular target: His-tagged C-propeptide of the human procollagen α1(I) chain (C1A1His), chain of homo-CPI (human); test: SDS-PAGE (non-reducing and reducing) + MALDI-TOF mass spectrometry; purified homo-CPI; ~85 kDa non-reducing, 30 kDa reducing; disulfide-bonded trimer

stoichiometry N (α1 chains per α2 chain) [1] | stoichiometry N [2] | Substance
2 |  | Non-tagged C-propeptide of the human procollagen α1(I) chain (C1A1) (domain or fragment)
 | 3 | His-tagged C-propeptide of the human procollagen α1(I) chain (C1A1His), chain of homo-CPI (domain or fragment)
